Reference: the supplement of paper PMC10567573

B1: FCHO1 (parent)
chain: FTSSPSPFSSSSPENVEDSGLDSP
B2: ALKBH7 (parent)
chain: SVICRSLPEGMGPGESGQPPPAC

Variants of: B1
Test: protein stability index of a GFP-peptide fusion (GPS, HEK-293T) (PSI 1-6); higher = more stable
Conditions: c terminus: a fixed tail appended
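Also: lentivirally expressed fusions sorted by FACS into six bins by GFP to DsRed ratio, PSI derived from sequencing read proportions per bin multiplied by bin number.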

Protein stability index, by site and new letter:
E17: P 1.8, K 1.78, T 2.26, I 1.67, H 1.98, V 1.3, L 1.88, C 1.68, A 1.5, Q 1.85, Y 2.23, M 2.32, N 2.1, F 2.21, R 1.86, W 1.65, S 2.53, G 1.96, D 1.84
G20: F 2.32, Y 2.33, A 1.88, S 2.09, N 1.98, H 2.43, L 2.07, R 1.91, I 1.97, K 2.87, M 2.07, E 2.04, P 1.86, C 2.31, T 3.02, V 1.64, Q 1.99, W 1.56, D 1.88
P24: H 2.42, Q 2.32, F 1.89, M 2.24, Y 2.35, E 1.84, C 2.99, R 2.47, W 1.54, G 1.77, T 2.08, V 2.02, S 1.94, I 1.96, A 1.38, K 1.96, L 1.98, D 1.85, N 1.81
F8: T 5.39, V 4.45, Y 2.04, S 5.08, R 4.29
E14: K 2.1, I 1.9, P 1.94, Q 2.31, A 1.96, V 2.15, C 1.69, M 2.05, Y 1.72, F 1.64, H 1.95, D 2.4, S 2.17, W 2.78, N 2.14, L 2.22, R 1.61, T 1.84, G 1.92
D22: V 2.43, C 2.47, A 2, S 1.78, Y 2.42, L 2.14, F 1.31, K 1.74, W 2.62, M 1.48, R 2.04, N 2.96, H 2.29, E 2.6, T 2.18, G 1.86, P 2.23, Q 1.83, I 2.11
S12: W 1.98, R 1.56, I 2.12, N 2.37, L 2.27, V 2.56, H 3.01, P 2.25, E 1.7, Y 1.75, M 1.99, K 1.56, D 2.53, C 2.46, G 2.36, T 2.01, Q 2.26, F 2.65, A 1.74
V16: D 2.39, E 1.81, A 2.47, P 1.6, F 1.75, H 2.27, Y 2.03, G 2.75, K 1.9, R 2.08, M 1.68, N 1.86, T 2.52, C 2.44, S 2.15, Q 1.91, L 1.7, I 2.25, W 2.16
S11: F 1.62, K 1.86, D 2.75, I 2.23, N 1.55, Y 2.25, Q 2.06, V 1.77, P 1.86, R 2.01, E 2.18, T 1.67, H 1.83, A 2.05, C 2.65, L 1.63, W 2.39, M 1.76, G 1.33
L21: S 1.81, I 2.87, C 2.23, V 2.01, T 2.52, W 1.7, F 2.07, Q 2.03, E 1.95, P 2.14, M 2.84, A 1.49, Y 2.19, N 2.28, R 2.21, G 2.12, D 2.06, K 2.02, H 2.27
S19: H 2.46, R 2.39, F 2.24, D 1.9, Y 2.78, A 2.04, V 2, E 1.81, C 2.22, N 2.06, L 2.32, I 2.27, K 1.95, Q 2.21, M 1.5, W 1.57, G 1.64, T 2.34, P 2.26
S23: M 1.68, H 2.44, I 1.91, A 2.06, P 2.27, C 1.68, V 1.56, G 1.81, Y 1.37, D 2.18, T 1.8, Q 2.66, E 1.88, L 2.6, R 1.79, F 2.18, N 1.78, K 2.17, W 2.12
P13: R 1.85, I 2.05, L 2.21, E 2.44, W 1.83, G 1.93, S 2.13, T 1.77, Y 2.04, K 2.14, N 1.66, F 2.49, A 1.77, V 2.28, D 2.1, Q 2.39, M 1.58, C 1.53, H 2.29
S9: I 2.91, T 2.29, H 1.84, M 2.02, Y 2.45, A 2.09, Q 2.06, R 1.76, D 2.67, V 1.73, F 2.34, N 2.08, L 2.17, C 2.22, P 3.79, G 2.2, E 2.83, K 1.89, W 2.71
S10: E 2.05, V 2.06, R 2.56, F 2.09, L 1.71, P 2.3, D 1.93, M 1.94, N 2.3, T 2.15, G 2.02, W 2.7, Q 1.92, H 2, K 1.88, I 2.7, A 2.53, Y 2.07, C 2.14
N15: T 2.04, W 2.39, G 1.64, E 1.82, Q 1.81, A 2.13, D 2.25, C 2.24, P 2.95, Y 1.6, R 1.71, K 1.43, H 1.66, F 1.73, S 2.33, M 2.57, V 2.46, I 2.05, L 2.01
D18: K 1.91, C 2.17, A 1.62, W 1.92, F 2.26, N 2.42, P 2.01, Y 2.27, L 2.05, M 1.99, V 1.73, E 1.92, S 1.82, T 2.03, Q 1.93, I 2.01, G 1.83, H 2.7, R 1.6

Variants of: B2
Test: as above
Conditions: c terminus: native

Protein stability index: each site, then its substitutions
S1: E 3.06, R 1.39, I 3.78, T 2.2, N 1.63, P 2.23, D 1.87, M 1.47, G 2.23, H 1.98
V2: K 2.14, T 2.9, G 2.08, F 2.78, M 2.57, P 2.31, Q 2.26, C 1.73, I 2.77, H 1.78, E 2.4, N 2.41, D 2.05, A 2.4, S 2.67
